# Assay results as given in publication PMC12923268, “JAZ2/JAZ4-MYC2.1 module mediates MeJA-induced alleviation of chilling injury in peach fruit (Prunus persica)”.
# Biological target: T1, PpMYC2.1 (Prunus persica, UniProt A0A251P353 1-687)
# Assay: EMSA; Chemiluminescent EMSA Kit (Beyotime); buffer, salt, pH and temperature not stated
# Conditions: protein: recombinant; tags: His, SUMO (pET-SUMO); chain copies: 2; label: 3' biotin; blunt
# T1 sequence (A0A251P353 entry or part of it): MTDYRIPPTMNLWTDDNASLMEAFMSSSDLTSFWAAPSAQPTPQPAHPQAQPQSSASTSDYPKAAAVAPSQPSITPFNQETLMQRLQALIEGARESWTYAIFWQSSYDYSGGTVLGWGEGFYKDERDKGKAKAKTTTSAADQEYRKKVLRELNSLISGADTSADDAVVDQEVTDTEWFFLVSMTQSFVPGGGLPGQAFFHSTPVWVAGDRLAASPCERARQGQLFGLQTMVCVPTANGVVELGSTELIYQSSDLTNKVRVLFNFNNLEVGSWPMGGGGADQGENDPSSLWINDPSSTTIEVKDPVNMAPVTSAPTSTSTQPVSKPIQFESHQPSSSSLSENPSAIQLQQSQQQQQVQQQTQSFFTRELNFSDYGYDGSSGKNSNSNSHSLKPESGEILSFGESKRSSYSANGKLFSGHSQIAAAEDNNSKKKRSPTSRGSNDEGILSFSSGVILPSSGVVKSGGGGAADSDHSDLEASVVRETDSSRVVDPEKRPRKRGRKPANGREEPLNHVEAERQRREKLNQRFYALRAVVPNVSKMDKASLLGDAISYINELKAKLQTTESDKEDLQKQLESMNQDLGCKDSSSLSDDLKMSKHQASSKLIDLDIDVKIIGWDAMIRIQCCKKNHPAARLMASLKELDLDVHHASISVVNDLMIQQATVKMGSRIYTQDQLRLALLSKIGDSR
row,Binder,binding result
1,PpXTH2 probe (dsDNA) DNA 1: TGAGGCGCACATGGAACAAAATTAG DNA 2: CTAATTTTGTTCCATGTGCGCCTCA,binds
2,PpPAL1 probe (dsDNA) DNA 1: GGCAACCACATGGATGAATTGTTAT DNA 2: ATAACAATTCATCCATGTGGTTGCC,binds
3,PpERF61 probe (dsDNA) DNA 1: ACAAGTTGAGCATGTGTACCCAATTGCT DNA 2: AGCAATTGGGTACACATGCTCAACTTGT,binds
4,PpIAA1 probe (dsDNA) DNA 1: AGTAGTTGGCACGTGTTATAAATAATA DNA 2: TATTATTTATAACACGTGCCAACTACT,binds
5,Pp4CL probe (dsDNA) DNA 1: GCATGGGACACACGTGTTCAAATACTTGTATGA DNA 2: TCATACAAGTATTTGAACACGTGTGTCCCATGC,binds
6,PpPG2 probe (dsDNA) DNA 1: GACAACAATTCCACATGTCCTATGTTTATTG DNA 2: CAATAAACATAGGACATGTGGAATTGTTGTC,binds
7,PpPL1 probe (dsDNA) DNA 1: CACACACTCACATGTTGCTAAATT DNA 2: AATTTAGCAACATGTGAGTGTGTG,binds
8,PpCHS probe (dsDNA) DNA 1: AGAAAACCACGTGGGACAAAACCCTAGA DNA 2: TCTAGGGTTTTGTCCCACGTGGTTTTCT,binds
9,PpHB.G7 probe (dsDNA) DNA 1: GTGGCGTGAGAACACGTGTGGCCGTTACGC DNA 2: GCGTAACGGCCACACGTGTTCTCACGCCAC,binds
10,PpCHI3 probe (PpCHI) (dsDNA) DNA 1: CATCTACCCACGTGTTCAACAATTCAA DNA 2: TTGAATTGTTGAACACGTGGGTAGATG,binds

# Biological target: T1, PpMYC2.1
# Assay: competition; mutant competitor vs N1; failed to compete effectively; Chemiluminescent EMSA Kit (Beyotime); buffer, salt, pH and temperature not stated
# Conditions: protein: recombinant; tags: His, SUMO (pET-SUMO); chain copies: 2; blunt
row,Binder,binding result
1,PpERF61 mut (dsDNA) DNA 1: ACAAGTTGAGAAAAAATACCCAATTGCT DNA 2: AGCAATTGGGTATTTTTTCTCAACTTGT,no binding

# Biological target: T1, PpMYC2.1
# Assay: competition; mutant competitor vs N3; failed to compete effectively; Chemiluminescent EMSA Kit (Beyotime); buffer, salt, pH and temperature not stated
# Conditions: protein: recombinant; tags: His, SUMO (pET-SUMO); chain copies: 2; blunt
row,Binder,binding result
1,PpHB.G7 mut (dsDNA) DNA 1: GTGGCGTGAGAAAAAAAATGGCCGTTACGC DNA 2: GCGTAACGGCCATTTTTTTTCTCACGCCAC,no binding

# Biological target: T1, PpMYC2.1
# Assay: competition; mutant competitor vs N5; failed to compete effectively; Chemiluminescent EMSA Kit (Beyotime); buffer, salt, pH and temperature not stated
# Conditions: protein: recombinant; tags: His, SUMO (pET-SUMO); chain copies: 2; blunt
row,Binder,binding result
1,PpIAA1 mut (dsDNA) DNA 1: AGTAGTTGGAAAAAATTATAAATAATA DNA 2: TATTATTTATAATTTTTTCCAACTACT,no binding
